Test results reported in US20040176301A1 (CYCLACEL, published 2004).
Ends that are not written are not given here.

B1: FYHSKRRLI-NH2 (peptide)
peptide: FYHSKRRLI-NH2
B2: SKRRLIF-NH2 (peptide)
peptide: SKRRLIF-NH2
B3: HSKRRLIFS-NH2 (peptide)
peptide: HSKRRLIFS-NH2
B4: YHSKRRLIFS-NH2 (peptide)
peptide: YHSKRRLIFS-NH2
B5: YHSKRRLI-NH2 (peptide)
peptide: YHSKRRLI-NH2
B6: HSKRRL-NH2 (peptide)
peptide: HSKRRL-NH2
B7: FYHSKRR-NH2 (peptide)
peptide: FYHSKRR-NH2
B8: DFYHSKRRAIFS-NH2 (peptide)
peptide: DFYHSKRRAIFS-NH2
B9: DFYHSARRLIFS-NH2 (peptide)
peptide: DFYHSARRLIFS-NH2
B10: DFYHSKRRLIFA-NH2 (peptide)
peptide: DFYHSKRRLIFA-NH2
B11: YHSKRRL-NH2 (peptide)
peptide: YHSKRRL-NH2
B12: TSMTDFYHSKRR-NH2 (peptide)
peptide: TSMTDFYHSKRR-NH2
B13: YHSKR-NH2 (peptide)
peptide: YHSKR-NH2
B14: HSKRRLI-NH2 (peptide)
peptide: HSKRRLI-NH2
B15: FYHSKR-NH2 (peptide)
peptide: FYHSKR-NH2
B16: H-Lys-Arg-Arg-Leu-Ile-Phe-NH2 (peptide)
peptide: H-KRRLIF-NH2
B17: FYHSKRRL-NH2 (peptide)
peptide: FYHSKRRL-NH2
B18: YHSKRRLIFSKR-NH2 (peptide)
peptide: YHSKRRLIFSKR-NH2
B19: AFYHSKRRLIFS-NH2 (peptide)
peptide: AFYHSKRRLIFS-NH2
B20: FYHSKRRLIFSK-NH2 (peptide)
peptide: FYHSKRRLIFSK-NH2
B21: DFYHSKR-NH2 (peptide)
peptide: DFYHSKR-NH2
B22: DFYHSKARLIFS-NH2 (peptide)
peptide: DFYHSKARLIFS-NH2
B23: DFAHSKRRLIFS-NH2 (peptide)
peptide: DFAHSKRRLIFS-NH2
B24: DFYHSKRRLIAS-NH2 (peptide)
peptide: DFYHSKRRLIAS-NH2
B25: p21 (150-159) FYHSKRRLIF-NH2 (peptide)
peptide: FYHSKRRLIF-NH2
B26: DFYHSKRRLAFS-NH2 (peptide)
peptide: DFYHSKRRLAFS-NH2
B27: DFYHSKRALIFS-NH2 (peptide)
peptide: DFYHSKRALIFS-NH2
B28: p21 (148-159) TDFYHSKRRLIF-NH2 (peptide)
peptide: TDFYHSKRRLIF-NH2
B29: YHSKRR-NH2 (peptide)
peptide: YHSKRR-NH2
B30: HSKRRLIFSKRK-NH2 (peptide)
peptide: HSKRRLIFSKRK-NH2
B31: SKRRLIFSKRKP-NH2 (peptide)
peptide: SKRRLIFSKRKP-NH2
B32: p21 (151-159) YHSKRRLIF-NH2 (peptide)
peptide: YHSKRRLIF-NH2
B33: DFYASKRRLIFS-NH2 (peptide)
peptide: DFYASKRRLIFS-NH2
B34: MTDFYHSKRRLI-NH2 (peptide)
peptide: MTDFYHSKRRLI-NH2
B35: KRRLIFSK-NH2 (peptide)
peptide: KRRLIFSK-NH2
B36: SMTDFYHSKRRL-NH2 (peptide)
peptide: SMTDFYHSKRRL-NH2
B37: DAYHSKRRLIFS-NH2 (peptide)
peptide: DAYHSKRRLIFS-NH2
B38: FYHSKRRLIFS-NH2 (peptide)
peptide: FYHSKRRLIFS-NH2

Columns and labels:
CDK2/Cyclin E complex = CDK2/Cyclin E complex (UniProt P24941 1-298; P24864 1-410); experiment: cell-based or functional assay
CDK4/Cyclin D1 complex = CDK4/Cyclin D1 complex (UniProt P11802 1-303; P24385 1-295); experiment: cell-based or functional assay
CDK4/Cyclin D1 complex, sequence (P11802 other isoform, or with tags, fused parts or gaps, chain 1 of 2): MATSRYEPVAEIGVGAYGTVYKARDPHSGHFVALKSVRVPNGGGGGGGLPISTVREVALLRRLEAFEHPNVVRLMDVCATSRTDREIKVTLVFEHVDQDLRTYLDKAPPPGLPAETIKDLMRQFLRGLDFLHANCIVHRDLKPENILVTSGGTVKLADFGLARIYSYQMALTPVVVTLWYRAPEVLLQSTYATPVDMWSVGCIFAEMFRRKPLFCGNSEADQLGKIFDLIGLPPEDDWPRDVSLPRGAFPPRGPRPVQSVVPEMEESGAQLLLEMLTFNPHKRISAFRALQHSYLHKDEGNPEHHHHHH
CDK4/Cyclin D1 complex, sequence (P24385 whole entry, chain 2 of 2): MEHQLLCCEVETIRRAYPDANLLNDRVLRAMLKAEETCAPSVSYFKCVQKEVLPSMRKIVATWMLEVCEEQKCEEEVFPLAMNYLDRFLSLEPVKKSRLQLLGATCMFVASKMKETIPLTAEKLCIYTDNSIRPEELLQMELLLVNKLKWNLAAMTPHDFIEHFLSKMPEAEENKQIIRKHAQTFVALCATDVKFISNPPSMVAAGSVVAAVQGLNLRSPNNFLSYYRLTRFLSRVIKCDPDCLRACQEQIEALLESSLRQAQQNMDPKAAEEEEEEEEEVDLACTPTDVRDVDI
Throughout, for % Inhibition, cyclin D1/CDK4 kinase: test concentration or dose not given here.
Throughout, for % Inhibition, cyclin E/CDK2 kinase: test concentration or dose not given here.

| Binder | % Inhibition, cyclin E/CDK2 kinase (CDK2/Cyclin E complex) [%] | % Inhibition, cyclin D1/CDK4 kinase (CDK4/Cyclin D1 complex) [%] | IC50, cyclin E/CDK2 kinase, GST-pRb (CDK2/Cyclin E complex) [µM] | IC50, cyclin D1/CDK4 kinase, GST-pRb (CDK4/Cyclin D1 complex) [µM] |
| --- | --- | --- | --- | --- |
| B1 | 45 | 20 | – | – |
| B2 | 80 | 72 | 7.7 | 54 |
| B3 | 80 | 65 | 3.4 | 32 |
| B4 | 80 | 70 | 7.3 | 20 |
| B5 | 45 | 15 | > 200 | – |
| B6 | 45 | – | > 200 | – |
| B7 | 45 | 20 | > 200 | – |
| B8 | 30 | 30 | – | – |
| B9 | 80 | 50 | 12.9 | 200 |
| B10 | 70 | 60 | 5.4 | 40 |
| B11 | 30 | 10 | > 200 | – |
| B12 | 35 | 30 | – | – |
| B13 | 25 | 10 | – | – |
| B14 | 35 | 10 | – | – |
| B15 | 20 | 10 | – | – |
| B16 | 80 | 72 | 1.1 | > 200 |
| B17 | 48 | 20 | > 200 | – |
| B18 | 80 | 60 | 17.6 | 45 |
| B19 | 70 | 72 | 11 | 22 |

| Binder | % Inhibition, cyclin E/CDK2 kinase (CDK2/Cyclin E complex) [%] | % Inhibition, cyclin D1/CDK4 kinase (CDK4/Cyclin D1 complex) [%] | IC50, cyclin E/CDK2 kinase, GST-pRb (CDK2/Cyclin E complex) [µM] | IC50, cyclin D1/CDK4 kinase, GST-pRb (CDK4/Cyclin D1 complex) [µM] |
| --- | --- | --- | --- | --- |
| B20 | 70 | 70 | 26 | 41 |
| B21 | 50 | – | 200 | – |
| B22 | 25 | 30 | – | – |
| B23 | 80 | 56 | 5.3 | 121 |
| B24 | 20 | 35 | – | – |
| B25 | 80 | 70 | – | – |
| B26 | 80 | 61 | 14 | 53 |
| B27 | 70 | 30 | 30 | – |
| B28 | 85 | 72 | 2.2 | – |
| B29 | 40 | 10 | – | – |
| B30 | 90 | 80 | 8.7 | 34 |
| B31 | 70 | 40 | 46 | – |
| B32 | 80 | 70 | 7 | – |
| B33 | 80 | 60 | 5.1 | 73 |
| B34 | 35 | 11 | – | – |
| B35 | 60 | 20 | > 200 | – |
| B36 | 40 | 18 | – | – |
| B37 | 85 | 76 | 5.9 | 37 |
| B38 | 80 | 70 | 6.8 | 22 |
